Reference: the nanobody polyreactivity screen of Harvey et al. (2022)

Assay: yeast display, Sf9 membrane polyspecificity reagent, FACS + sequencing; frameworks hold sequencing errors
Summary of the method: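 In a synthetic yeast display library (Saccharomyces cerevisiae BJ5465), nanobody expression was induced with galactose for 36–48 hours. FACS gates were set low and high (top ~1%) using anti-HA fluorescence for expression and streptavidin fluorescence for binding of the Sf9 membrane reagent. Each polyreactivity label is drawn from the gate of origin.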

Row | Sequence | polyreactivity (PSR sort gate)
1 | QVQLVESGGGLVQAGGRLRLSCAASGFTFHNNVMGWYRQAPGKERELVATISKSGGSTYYADSVKGRFTISRDHAKNTVYLQMNSLKPEDTAVYYCARRYRDYGRYGYWGQGTQVTVSS | high polyreactivity
2 | QVQLVESGGGLVQAGGRLRLSCAASGGIFRRNAMGWYRPAPGKERELVAAISRSGGRTYYADSVKGRFTISRDNAKTSVYLQMNSLKPEDTAVYYCNADYGTRAGVDYWGQGTQVTVSS | low polyreactivity
3 | QVQLVESGGGLVQAGGRLRLSCAASGGIFSAYAMGWYRQAPGTERELVAAISSGGSTKYADSVKGRVTISRDNAQNTVYLQMNSLKPEDTAVYYCAVLYIRWYTYEYWGQGAQVTVSS | high polyreactivity
4 | QVQLVESGGGLVQAGGRLRLSCAASGGTFYLIAMGWYIQAPGKERELVAAISGSGTSTYYADSVKGRFTISRDNAKNTVYLQMNSLKPEDTAVYYCAADGTYFYIYLGDRFDYWGQGTQVTVSS | low polyreactivity
5 | QVQLVESGGGLVQAGGRLRLSCAASGIIFPRYAMGWYRQAPGKERELVAAISGSGVGTYYADSVKGRFTISRDYAKNTVYIQMNSLKPEDTAVYSCATRYQWGGPYYRYDYWGQGTQVTVSS | high polyreactivity
6 | QVQLVESGGGLVQAGGRLRLSCAASGIIFYVYTMGWSRQAPGKERELVAAISGSGGSTTYADSVKGRFTISRDNAKNTVYLQMNSLKPEDTAVYYCNAKKWFYRWWKFSEFDYWGQGTQVTVSS | high polyreactivity
7 | QVQLVESGGGLVQAGGRLRLSCAASGIIIDYYTMGWYRQAPGKERELVAAINKSGGSTYADSVKGRFTISRDNAKNTVYLQMNSLKPEDTAVYYCAAEVDYSYWPEYARKYYYWGQGTQVTVSS | low polyreactivity
8 | QVQLVESGGGLVQAGGRLRLSCAASGITFYSYAMGRYRQAPGKERELVAAISTTVGSTYYADYVKGRFTISRDNPNNTVYLQMNSLKPEDTAVYYCNSYSVYAWIEYNYWGQGTQVTVSS | low polyreactivity
9 | QVQLVESGGGLVQAGGRLRLSCAASGITISGNAMGWYRQAPGKERELDAAISGRGGSTYYADSVKGRFTISRDNAKNTVYLQMNSLIPEDTAVFYCAARVPSPYVATYYYWGQGSQVTVSS | high polyreactivity
10 | QVQLVESGGGLVQAGGRLRLSCAASGLIFDYYAMGWYRQAPGKERELVAAISYSGGRTYYADSVKCRFTISRDNAKNTVYLQMNSLKPEDTAVYYCNKVVLQPVIVDHDYWGQGTQVTVSS | low polyreactivity
11 | QVQLVESGGGLVQAGGRLRLSCAASGLIFGANTMGWYSQAPGKERELVAAITSSGGSTYYADSVKGRFTISRDNAKNTVYLQMNSLKPEDTAVYFCNDRSWYPYDYWGQGTQVTVSS | low polyreactivity
12 | QVQLVESGGGLVQAGGRLRLSCAASGLIFRTYTMVWYRQAPGKERELVATITRRGGTTYYADSVKGRFTISRDNAKNTVYLQMNSLKPEDTAVYYCAAKSAYHGLVGGYYYWGQGTQVTVSS | high polyreactivity
13 | QVQLVESGGGLVQAGGRLRLSCAASGLIFSVYVMGGYRQAPGKERELVAGITTGGSTKYADSVKGRFTISRDNAKNTVYLEMNSLKPEDTAVYYCAVGKYNYRGSWDYYWGQGTQVTVSS | high polyreactivity
14 | QVQLVESGGGLVQAGGRLRLSCAASGLTFAKYSMGWYRQAPGTERELVAAITASGASTYYADSVKGRFTISRDNAKNTVYLQMNSLKPEDTAVYYCAVRRYYNDYWGQGSQVTVSS | low polyreactivity
15 | QVQLVESGGGLVQAGGRLRLSCAASGLTFGWYTMGWYRQAPGKERELVADITWSGGSTYYADSVKGRFTISRDNAKNTVYLQMNSLKPEDTAVYYCNKVWFYLEYGFSILYDYWGQGTQVTVSS | low polyreactivity
16 | QVQLVESGGGLVQAGGRLRLSCAASGLTFLPNAMGWYRQAPGKERELVAAISWSDVRTYYADSVKGRFTISRDNAKNTVYLQMNSLKPEDTAVYYCAAEIYDLPEGDYWGQGTQVTVSS | high polyreactivity
17 | QVQLVESGGGLVQAGGRLRLSCAASGLTFTYYAMGWYRQAPGKERELVATISWSGGTTYADSVKGRFTISRDNAKNTVYLQMNSLKPEDTAVYYCAADHPLYRRYDYWGQGTQVTVSS | high polyreactivity
18 | QVQLVESGGGLVQAGGRLRLSCAASGRIFGINVMGWYRQAPGKERELVARITGRGGRTYYADSVKGRFTISRDNAKNTVYLQMNSLKPEDTAVYYCAADASYEAYDYWGQGTQVTVSS | high polyreactivity
19 | QVQLVESGGGLVQAGGRLRLSCAASGRIFNIYAMGWYRQAPGKERELVAAISGSGGRTSYADSVKGRFTISRDNAKNTVYLQMNSLKPEDTAVYYCAADYSYYTSFRYDYWGQGTQVTVSS | low polyreactivity
20 | QVQLVESGGGLVQAGGRLRLSCAASGRIFPRYVMGWYRQAHGKERELVAAITYRGGSTSYADSVKGRFTISRDNAKNTVYLQMNSLKPEDTAVYYCNAYRRAGRTVGTTRRYYYLGQGTQVTVSS | high polyreactivity
21 | QVQLVESGGGLVQAGGRLRLSCAASGRIFPVYTMGWYRQAPGKERELVAAISGNGASTYYADSVKGRFTISRDNAKNTVYLQMNSLKPEDTAVYYCAAYFYYWGSTFVRYEYWGQGTQVTVSS | high polyreactivity
22 | QVQLVESGGGLVQAGGRLRLSCAASGRIFVYYAMGWYRQAPGKERELVAAINSSGGRTYYADSVKGRFTISRDNAKNTVYLQMNSLKPEDTAVYYCAARKYSYPVAAHYYWGQGTQVTVSS | high polyreactivity

Row | Sequence | polyreactivity (PSR sort gate)
23 | QVQLVESGGGLVQAGGRLRLSCAASGRTFDRYAMGWYRQAPGKERELVAAITWSGGRTYYADSVKGRFTISRDNAKKTVYLQMNSLKPEDTAVYYCAADNSYRGYHSPYDYWGQGTQVTVSS | low polyreactivity
24 | QVQLVESGGGLVQAGGRLRLSCAASGRTFFRYVMGWYRQAPGKERELVAAISRSGGSTYYADSVKGRFTISRDNAKNTVYLQMNSLKPEATAVFYCNTVARSTVVPTEFDYWGQGTQVTVSS | high polyreactivity
25 | QVQLVESGGGLVQAGGRLRLSCAASGRTFPYYVMGWYRQAPGKERELVAVIRWRGGSTYYADSVKGRFTISRDNAKNTVYLQMNSLKPEDTAVYYCAARRHIVVATYDRRYDYWGQGTQVTVSS | low polyreactivity
26 | QVQLVESGGGLVQAGGRLRLSCAASGRTFSKYPLGWYRQAPGKERELVAAITSGGGTYYADSVKGRFTFSRDNAKNPVYLQMHSRKPEDTAVYYCAVSGTTVSTYDYWGQCTQVTVSS | low polyreactivity
27 | QVQLVESGGGLVQAGGRLRLSCAASGRTFVYNALGWYRQAPGKERELVAAISQSGGSTYYADSVKGRFTISRDNAKITVYFQMNSLKPEDTAVYYCADRYKTGSYVRYNFWGQGTQVTVSS | high polyreactivity
28 | QVQLVESGGGLVQAGGRLRLSCAASGRTFYGYAMGWYRQAPGKEREMVAAITQRGVSTYADSVKGRFTISRDNAKNTVYLQMNSLKQEDTAVYYCAADQIERFRDQTWDFDYWGQGTQVTVSS | low polyreactivity
29 | QVQLVESGGGLVQAGGRLRLSCAASGSFFGGSGMGWYRQAPGKERELVAAITSGSSTYYADSVNGRFTISRDNAKNTVYLQMNSLKPEDSAVYYCAARPYPHSAYEGDYWGRGTQVTVSS | low polyreactivity
30 | QVQLVESGGGLVQAGGRLRLSCAASGSIFAGYAMGWYRQAPGKERELVAAITSSCGSTYYADSVKGRFTISRDNAKNTVYLQMNSLNPEDTAVYYCAKDKLIFYRVGSDYWGQGTQVTVSS | low polyreactivity
31 | QVQLVESGGGLVQAGGRLRLSCAASGSIFCVNAMGWSRQAPGKERELVATITGSSGITYYADSVKGRFTISRVNAKNTVYLQMNSVKPEDTAVYYCAAVLLKFAYNYNYWGQGTQVTVSS | low polyreactivity
32 | QVQLVESGGGLVQAGGRLRLSCAASGSIFGANTMVWYRQAPGKERELVAAISSGGNTYYADSVKGRFTISRDNAKNTVYLQMNSLKPEDTAVYYCNAQTRYRYQYGYLGGTGYNYWGQGTQVTVSS | low polyreactivity
33 | QVQLVESGGGLVQAGGRLRLSCAASGSIFGRYAMGRYRQAPGKERELVAAITWSATSTYYADYVKGRFTISRDNAKNTVYLQMNSLKPEDTAVYYCAVRTPRARYTYGSWGQGTQVTVSS | high polyreactivity
34 | QVQLVESGGGLVQAGGRLRLSCAASGSIFLFYAMGWYRKAPVKERELVARITSSGGTTYYADSVKGRFTISRDNAKNTVYLQMNSLKPEDTAVYYCAASYFIYHYDFDYWGQGTQVTVSS | high polyreactivity
35 | QVQLVESGGGLVQAGGRLRLSCAASGSIFNYYARGWYRQAPGKERELVAAIPTSGGNPYYADSVKGRFTISRDNAKNTVKLQMNSLKPEDTALYNCAADYWASGGEYDYWGQGTQVTVSS | low polyreactivity
36 | QVQLVESGGGLVQAGGRLRLSCAASGSIFQKNAMGWYRQAPGKERELVAVITRGGTSTYYADSVKGRFTISRDNAKNTVYLQMNSLKTEDTAVYYCAAKADKRLDYWGQGTQVTVSS | low polyreactivity
37 | QVQLVESGGGLVQAGGRLRLSCAASGSIFRYYDMGWYRQATGKEREFVAAISYRGGTTYYADSVKGRFTISRDNAKNTVYLQMNSLKPEDTAVYYCAKETYRSSSYDWYDYWGQGTQVTVSS | low polyreactivity
38 | QVQLVESGGGLVQAGGRLRLSCAASGSIFSIYPMGWYRQAPGKERDFVASITVTDGSTYYADSVKGRFTISRDNAKNTVYLQMNSLKPEDTADYYCNADGWYALYEWLAVSGYYWGQGTQVTVSS | low polyreactivity
39 | QVQLVESGGGLVQAGGRLRLSCAASGSIFSRNAMGRYRQATGKESELVAAISRGGSTNYADSVKGRFTISRDNAKNTVYLQMNSLKPEDTAVYYCANVGRRSWYRWLGPLWYGGMDYWGQGTQVTVSS | low polyreactivity
40 | QVQLVESGGGLVQAGGRLRLSCAASGSIFTVYSMGWYRQAPGKERELVASIRFSSGRTYYADSVKGRFTISRDNAKNTVYLQMNSLKPEDTAVYYCAAETVSWYRYYYWGQGTQVTVSS | high polyreactivity
41 | QVQLVESGGGLVQAGGRLRLSCAASGSIFYSNAMGWYRQAPGKEREFVAAISAGGGSTYYADSVKGRFTISRDNAKNTVYLQMNSMKPEDTAVYFCAAQPYKIIYPYDYWGQGTQVTVSS | low polyreactivity
42 | QVQLVESGGGLVQAGGRLRLSCAASGSIILFKDMGWYGQAPGKERELVADITWSGGSTYYADSVKGRFTISCDNAKNTVYLQMHSLKPEDTAVDYCADDPDYYFTRGNYQWGYYWGQGTQVTVSS | low polyreactivity
43 | QVQLVESGGGLVQAGGRLRLSCAASGSTFFAYAMGWYRQAPGKQRELVAAITGRGSTYYADSVKGRFTISRDNAKNTVYLQMNSLKAEDTAVYYCAAQRSRRYYRLDFWGQGTQVTVSS | high polyreactivity
